Reference: patent US20180155430A1

Assays:
[1] = target: human PD-1 (Programmed Death-1) (human) (UniProt Q15116); assay: cell-based or functional assay
[2] = target: human PD-L1 (PD-ligand 1) (human) (UniProt Q9NZQ7); assay: cell-based or functional assay
Chain of UniProt Q9NZQ7 (Q9NZQ7 19-290 limits assumed): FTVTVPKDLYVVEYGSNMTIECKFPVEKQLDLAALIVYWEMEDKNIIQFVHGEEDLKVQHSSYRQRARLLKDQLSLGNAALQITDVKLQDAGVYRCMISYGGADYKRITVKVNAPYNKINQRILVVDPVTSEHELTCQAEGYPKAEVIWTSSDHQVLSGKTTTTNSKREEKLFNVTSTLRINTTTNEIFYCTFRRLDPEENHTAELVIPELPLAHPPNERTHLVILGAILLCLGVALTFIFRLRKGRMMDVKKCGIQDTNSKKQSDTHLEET

Chain of UniProt Q15116 (Q15116 other isoform, or with tags, fused parts or gaps limits assumed): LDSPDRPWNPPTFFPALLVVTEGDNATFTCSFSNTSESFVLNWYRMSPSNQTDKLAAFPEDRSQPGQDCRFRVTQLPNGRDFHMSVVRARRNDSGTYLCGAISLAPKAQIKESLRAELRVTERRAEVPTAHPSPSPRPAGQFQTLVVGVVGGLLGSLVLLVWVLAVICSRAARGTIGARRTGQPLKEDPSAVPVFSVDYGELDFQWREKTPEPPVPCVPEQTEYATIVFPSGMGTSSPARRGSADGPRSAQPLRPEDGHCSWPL

expansion of HCV-specific CFSE-low tetramer+ CD8+ T cells, 6 days with cognate peptide and IL-2 [2] [fold] | fold increase in B*4201 TL9 tetramer+ CD8+ T cells, 6-day CFSE proliferation assay of human PBMC with TL9 peptide plus antibody (peptide alone: 4.8-fold) [2] [fold] | fold increase in frequency of EBV or CMV-specific CD8 T cells, 6-day CFSE assay, peptide plus antibody against peptide alone [2] [fold] | percentage of B*4201 TL9-specific CD8+ T cells after 6-day stimulation with peptide [2] [%] | Molecule | expansion of HCV-specific CFSE-low tetramer+ CD8+ T cells, 6 days with cognate peptide and IL-2 [1] [fold]
 |  |  |  | anti-human PD-1 monoclonal antibody EH12 | 4
4 | 10.3 | < 3.5 | 12.4 | anti-human PD-L1 monoclonal antibody 29E.2A3 (antibody, from another filing, mouse IgG2b, V domains shown) VH: EVQLQQSGPELVKPGASVKMSCKASGYTFTSYVMHWVKQKPGQGLEWIGYVNPFNDGTKYNEMFKGKATLTSDKSSSTAYMELSSLTSEDSAVYYCARQAWGYPWGQGTLVTVSA VL: DIVLTQSPASLAVSLGQRATISCRATESVEYYGTSLVQWYQQKPGQPPKLLIYAASSVDSGVPARFSGSGSGTDFSLTIHPVEEDDIAMYFCQQSRRVPYTFGGGTKLEIK | 
